Source: US20240122985A1, “ANTIBODIES, COMBINATIONS COMPRISING ANTIBODIES, BIOMARKERS, USES & METHODS” (KYMAB LIMITED, priority 2016, published 2024)

T1: CHO-S expressed hOX40L (Homo sapiens, UniProt P23510)
T1 construct: CHO-S cells (optionally transfected with full length human OX40L); expressed in transfected cells
T1 sequence (P23510 1-183): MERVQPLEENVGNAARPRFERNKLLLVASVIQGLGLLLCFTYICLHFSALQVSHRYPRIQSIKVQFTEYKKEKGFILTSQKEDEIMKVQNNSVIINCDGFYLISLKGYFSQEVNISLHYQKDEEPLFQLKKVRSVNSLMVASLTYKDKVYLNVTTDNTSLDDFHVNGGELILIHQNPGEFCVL


Legend:
[1] = test system: Rhesus Macaque Graft versus Host Disease (GvHD) model; settings: Example 9, post-HSCT prophylaxis, Rhesus macaque (FIG. 7)
From the text: The effectiveness of antibody 2D10 IgG4PE as a monotherapy prophylactic for the prevention of GvHD was examined in a Rhesus Macaque model of haploidentical hematopoietic stem cell transplantation (HSCT).
All transplants were between half-sibling pairs that are mismatched at one MHC haplotype (“haploidentical-HCTs”). Recipient animals had irradiation based pre-myeloablative pre-transplant conditioning using a linear accelerator. Dose rate: 7cGy/min. Dose 1020 cGy given in 4 fractions. The leukapheresis donor animal underwent GCSF mobilisation and underwent leukapheresis using a Spectra Optia apheresis machine.
2D10 IgG4PE was dosed at 10 mg/kg i.v. according to a planned dosing schedule to take place on Day −2, Day+5, Day+12, Day+19, Day+26, Day+33, Day+40, Day+47 post-transplant.
Samples were taken during the course of the study to monitor donor chimerism (Table 4) and white blood cell counts. The primary end point was based on survival, with a survival to 15 days deemed to be a sign of successful prophylactic therapy (and compared to the documented survival of 6-8 days with no prophylaxis; Miller et al. 2010, supra). Though full pathology and histology with GvHD grading scores, markers of T-cell proliferation and activation (such as Ki-67 and granzyme B) and gene array analysis are planned, they were not available for inclusion at the time of drafting.
Scoring of clinical symptoms was based on observational assessments and clinical chemistry, classified according to the criteria set out in Table 5.
A further rhesus macaque GvHD study was conducted to determine the effect of combined post-HSCT prophylaxis with 2D10 IgG4PE and rapamycin. The study was performed as described in Example 7, with dosing as follows: 2D10 IgG4PE was administered i.v. at 10 mg/kg on Day −2, Day +5, Day+12, Day+19, Day+26, Day+33, Day+40, Day+47 and Day+56 post-transplant. Rapamycin was administered at a loading dose of 0.1 mg/kg i.m. on Day −14, followed by daily i.m. maintenance doses of 0.025 mg/kg until the scheduled termination of the study at Day+100. Rapamycin dosing was adjusted to maintain serum trough levels within the range 5-15 ng/mL.
This was a cohort study in NHP designed to determine the clinical, immunologic and molecular outcomes of OX40L blockade during allogeneic HCT. Two cohorts of transplant recipients were studied: (1) Allogeneic transplants using the OX40L-blocking human IgG4-PE antibody 1D05 (described as ‘KY1005’ in this Example 11) as monotherapy for GVHD prophylaxis (abbreviated as ‘KY1005’; n=4). KY1005 was given at a dose of 10 mg/kg starting on Days −2 and then once weekly until discontinuation on Days 54 (FIG. 8E). […] (2) Allogeneic transplants using KY1005 in combination with Sirolimus (Rapamycin) ([…]) for GVHD prophylaxis (abbreviated as ‘KY1005/Siro’; n=5). KY1005 was given at a dose of 10 mg/kg starting on Days −2 and then once weekly until discontinuation on Days 54 (FIG. 8P). […] These two OX40L-blockade groups were compared to the following cohorts, aspects of which have been described previously (Furlan et al., 2015; Furlan et al., 2016; Miller et al., 2010) (1) Autologous transplants (abbreviated as ‘Auto’, n=6 for clinical and flow cytometric data and n=4 for transcriptomic analysis) (2); Allogeneic transplants with no GVHD prophylaxis (abbreviated as‘No Rx’, n=11 for clinical and flow cytometric data and n=4 for transcriptomic analysis). (3) Allogeneic transplants using Sirolimus monotherapy for GVHD prophylaxis (LC laboratories, abbreviated as ‘Siro’, n=11 for flow cytometric analysis, n=4 for transcriptomic analysis).

CHO-S expressed hOX40L = molecular target: T1, CHO-S expressed hOX40L; test: Binding to CHO-S expressed hOX40L and receptor neutralisation (FACS); type: cell-based
Description: CHO-S cells expressing hOX40L or untransfected CHO-S cells, diluted in FACS buffer (PBS+1% w/v BSA+0.1% w/v NaN3) were distributed to a 96 well V-bottom plate (Greiner) at a density of 1×10^5 cells per well. Cells were washed with 150 μL of PBS and centrifuged at 300×g for 3 min. Supernatant was aspirated and 150 μL of PBS added. This wash step was repeated.
25 μL of hybridoma supernatant or purified antibody from hybridoma supernatant diluted in FACS buffer was added to the washed cells and incubated for 10-15 minutes. Reference Antibody or mouse IgG1 control antibody (Sigma) were diluted in FACS buffer to 20 μg/mL and 25 μL added to cells. 25 μL of human OX40R Fc (in-house) diluted to 1000 ng/mL in FACS buffer were then added to wells. Cells were incubated at 4° C. for 30 minutes.
To detect antibody and receptor binding, 50 μL of Goat anti-human IgG-PE (Jackson ImmunoResearch) and APC anti-mouse IgG (Jackson ImmunoResearch) diluted 1 in 500 in FACS buffer was added to the cells. Cells were incubated 30 minutes at 4° C. in the dark.
To fix cells 100 μL 2% v/v paraformaldehyde was added and cells incubated for 30 minutes at 4° C., cells were pelleted by centrifugation 300×g and the plates and resuspended in 50 μL of FACS buffer. PE and APC signal intensity (geomean) was measured by flow cytometry using a BD FACS Array instrument.
% of control binding was calculated using geomean fluorescence as described in equation 1 where total binding was defined as reference antibody at 10 μg/mL and non-specific binding as mouse IgG1 antibody at 10 μg/mL. % receptor binding was calculated using Equation 3.

recombinant hOX40L = molecular target: T2, recombinant hOX40L (Homo sapiens, UniProt P23510); test: Surface plasmon resonance, apparent affinity to human OX40L; type: binding; settings: SPR, 25° C.; CNROR = Cannot resolve off-rate
T2 construct: cDNA encoding the extracellular domain of human OX40L was cloned into a pREP4 expression plasmid; isoleucine zipper (N); made in house; host or cells: FreeStyle CHO-S (transient)
T2 sequence (P23510 with tags, fused parts or gaps): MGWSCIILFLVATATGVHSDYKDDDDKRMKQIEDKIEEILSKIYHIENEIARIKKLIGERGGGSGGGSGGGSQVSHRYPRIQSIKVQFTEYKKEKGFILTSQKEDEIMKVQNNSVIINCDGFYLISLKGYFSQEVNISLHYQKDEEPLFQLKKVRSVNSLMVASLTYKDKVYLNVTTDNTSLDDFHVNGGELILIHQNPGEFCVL
Description: (§1) SPR analysis was carried out using the ProteOn™ XPR36 Array System (BioRad). Anti-mouse IgG (GE Healthcare BR-1008-38) was immobilised on a GLM biosensor surface using amine coupling, the surface was then blocked using 1 M ethanolamine. Test antibodies were captured on this surface and recombinant hOX40L (human and rhesus) were used at a single concentration of 256 nM, binding sensorgrams were double referenced using a buffer injection (i.e. 0 nM) to remove baseline drift and injection artefacts. Apparent affinities for the OX40L-antibody interaction were determined using the 1:1 model inherent to the ProteOn XPR36 analysis software. The assay was run using HBS-EP (Teknova) as running buffer and carried out at 25° C.

Rhesus monkey OX40L = test: Surface plasmon resonance, apparent affinity to rhesus OX40L; type: binding, Rhesus (Macaca mulatta); settings: SPR, 25° C.; CNROR = Cannot resolve off-rate
Rhesus monkey OX40L, sequence (as listed by the source): as the sequence (P23510 with tags, fused parts or gaps) above, with R77Q, K95E counted along it
Description: as §1

| Molecule | FACS Binding (CHO-S expressed hOX40L) | Apparent Affinity hOX40L (nM) (recombinant hOX40L) | Apparent Affinity RhsOX40L (nM) (Rhesus monkey OX40L) | median survival time, MST [1] [days] |
| --- | --- | --- | --- | --- |
| CO[C@H]1C[C@@H]2CC[C@@H](C)[C@@](O)(O2)C(=O)C(=O)N2CCCC[C@H]2C(=O)O[C@H]([C@H](C)C[C@@H]2CC[C@@H](O)[C@H](OC)C2)CC(=O)[C@H](C)/C=C(\C)[C@@H](O)[C@@H](OC)C(=O)[C@H](C)C[C@H](C)/C=C/C=C/C=C/1C [rapamycin, rapamycin (sirolimus), reference compound] | – | – | – | 17 |
| 2D10 (hybridoma): murine/human chimeric anti-OX40L antibody purified from hybridoma supernatant (antibody, V domains shown) VH: EVQLVESGGGLVQPGGSLRLSCAASGFTFSNYAMNWVRQAPGKGLEWVSTISGSGGATRYADSVKGRFTISRDNSRNTVYLQMNSLRVEDTAVFYCTKDRLIMATVRGPYYYGMDVWGQGTTVTVSS VL: DIQMTQSPSSLSASVGDRVTITCRASQSISSYLNWYQQKPGKAPNLLIYAASSLQSGVPSRFSGSGSETDFTLTISSLQPEDFATYYCQQSHSVSFTFGPGTKVDIK | YES | CNROR | CNROR | – |
| 9H04 (hybridoma): anti-OX40L antibody from hybridoma; VH Seq ID No:66, VL Seq ID No:80 (antibody, V domains shown, 09H04 - VH Amino Acid Sequence; 09H04 - VL Amino Acid Sequence) VH: QVQLVESGGGLVKPGGSLRLSCAASRFTLSDYYMTWIRQAPGKGLEWVSYISSSGNTIYYADSVKGRFTISRDNAKNSLYLQMNSLRAEDTAVYYCARDLSGSYWDYYYGMDVWGQGTTVTVSS VL: AIQLTQSPSSLSTSVGDRVTIACRASQGINNALAWYQQKPGKAPKLLIYDASSLESGVPSRFSGSGSGTDFTLTISSLQPEDFATYYCQQFNSYPRTFGQGTKVEIK | YES | – | – | – |

The next lines start with results.

| FACS Binding (CHO-S expressed hOX40L) | Apparent Affinity hOX40L (nM) (recombinant hOX40L) | Apparent Affinity RhsOX40L (nM) (Rhesus monkey OX40L) | Molecule | median survival time, MST [1] [days] |
| --- | --- | --- | --- | --- |
| YES | CNROR | CNROR | 10A07 (hybridoma): murine/human chimeric anti-OX40L antibody purified from hybridoma supernatant (antibody, V domains shown) VH: EVQLVESGGVLVQPGGSLRLSCAASGFTFSSYIMTWVRQAPGKGLEWVSGISGSGGGTYYADSMKGRFTISRDNSKNTLYLQMNSLRVEDTAVYYCAKDRLGPITLVRGGYYYGMDVWGQGTTVTVSS VL: DIQMTQSPSSLSASVGDRVTITCRASQSISDYLNWYQQKPGKAPKFLIYAASSLQSGVPSRFSGSGSGTDFTLTVSSLQPEDFATYYCQQSYSTPRTFGQGTRVEIK | – |
| – | CNROR | CNROR | 10A07 (human): fully human anti-human OX40L monoclonal antibody; VH Seq ID No:2, VL Seq ID No:16 (antibody, V domains shown, 10A07 - VH Amino Acid Sequence; 10A07 - VL Amino Acid Sequence) VH: EVQLVESGGVLVQPGGSLRLSCAASGFTFSSYIMTWVRQAPGKGLEWVSGISGSGGGTYYADSMKGRFTISRDNSKNTLYLQMNSLRVEDTAVYYCAKDRLGPITLVRGGYYYGMDVWGQGTTVTVSS VL: DIQMTQSPSSLSASVGDRVTITCRASQSISDYLNWYQQKPGKAPKFLIYAASSLQSGVPSRFSGSGSGTDFTLTVSSLQPEDFATYYCQQSYSTPRTFGQGTRVEIK | – |
